Consider five molecules from patent publication US20070169210A1 (EMORY UNIVERSITY, published 2007).

For experiment [1], the target named is SED1, endogenous, of mouse sperm and male reproductive tract (mouse) (UniProt P21956). As to the kind of experiment: cell-based or functional assay.
Experiment [2] deals with zona pellucida of unfertilized (ovulated) oocytes. As to the kind of experiment: cell-based or functional assay.
Experiment [3] has as its target T1, SED1 expressed in COS-7 cells (SED1-COS), on secreted membrane vesicles (mouse, UniProt P21956 23-463).
T1 construct: Cloned into pcDNA3.1 D/V5-His-Topo; Used as SED1-enriched membrane vesicles released by COS-7 cells; also called COS-expressed SED1
T1 sequence: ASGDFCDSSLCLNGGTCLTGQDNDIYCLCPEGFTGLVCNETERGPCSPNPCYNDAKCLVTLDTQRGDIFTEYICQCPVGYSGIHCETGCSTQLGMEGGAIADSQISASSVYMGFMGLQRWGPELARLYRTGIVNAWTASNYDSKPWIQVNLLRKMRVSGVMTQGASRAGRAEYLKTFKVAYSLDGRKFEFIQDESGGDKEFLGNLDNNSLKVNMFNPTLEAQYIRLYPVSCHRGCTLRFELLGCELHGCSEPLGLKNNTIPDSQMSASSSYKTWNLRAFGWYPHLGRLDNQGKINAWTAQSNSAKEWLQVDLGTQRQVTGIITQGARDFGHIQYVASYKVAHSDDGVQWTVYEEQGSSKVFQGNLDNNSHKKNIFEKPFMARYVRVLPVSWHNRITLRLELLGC
The experiment in a line: blot overlay, zona glycoproteins resolved under reducing conditions, detected with anti-SED1. As for the experimental part:
(§1) The purification of zona pellucida glycoproteins was done as published elsewhere (Miller et al., 1992). The proteins were resolved on 10% polyacrylamide gels and transferred onto Immobilon-P membranes (Millipore) as above. The membranes were blocked in TBST containing 2% BSA for 1 hr at 25° C. Subsequently, membranes were incubated with either (His)₆-SED1, biotinylated (His)₆-SED1, SED1 prepared from COS-7 cells, or biotinylated WGA-lectin (positive control) for 1 hr at 25° C. and washed three times for 10 min in TBST, followed by incubation with either rabbit anti-SED1 and goat anti-rabbit-HRP, or Streptavidin-HRP (Zymed). The membranes were washed, developed, and exposed to film as above.
To determine which of the three zona glycoproteins could serve as the putative ligand for SED1, […]. When zona glycoproteins were resolved under reducing conditions, SED1 bound to glycoproteins comigrating as ZP1/ZP2 as well as ZP3 (FIG. 3D). Similar results were achieved using either biotinylated (His)₆-SED1 (D-SED1) detected by Streptavidin-HRP/ECL or recombinant (His)₆-SED1 (rSED1) detected by rabbit-anti-SED1 IgG and HRP-conjugated secondary antibodies (FIG. 3D). […]

The target in experiment [4] is T2, ZP1 zona pellucida glycoprotein (murine, UniProt Q62005 21-546).
T2 construct: Native glycoprotein on a blot, non-reducing conditions
T2 sequence (looked up): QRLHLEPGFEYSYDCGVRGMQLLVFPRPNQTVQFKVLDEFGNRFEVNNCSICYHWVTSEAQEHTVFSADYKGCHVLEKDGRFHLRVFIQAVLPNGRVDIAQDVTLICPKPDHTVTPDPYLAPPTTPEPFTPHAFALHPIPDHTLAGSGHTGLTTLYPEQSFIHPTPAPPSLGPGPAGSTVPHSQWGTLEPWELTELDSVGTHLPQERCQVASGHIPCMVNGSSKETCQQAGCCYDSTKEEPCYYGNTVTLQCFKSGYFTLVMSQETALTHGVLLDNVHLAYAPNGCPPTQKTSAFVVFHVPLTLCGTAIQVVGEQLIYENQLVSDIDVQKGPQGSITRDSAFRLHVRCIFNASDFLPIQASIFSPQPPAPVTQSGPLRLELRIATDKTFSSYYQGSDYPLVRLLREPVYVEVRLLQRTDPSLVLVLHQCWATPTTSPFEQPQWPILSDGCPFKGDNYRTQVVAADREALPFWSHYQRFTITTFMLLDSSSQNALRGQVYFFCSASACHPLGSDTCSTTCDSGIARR
The experiment in a line: blot overlay of zona glycoproteins resolved under nonreducing conditions, biotinylated (His)6-SED1, streptavidin-HRP. The procedure: as §1

In turn, “preimmune rabbit serum / preimmune IgG (antibody)” yielded a binding of GalT I null sperm to the zona, % of control (% of control binding at 200 µg/ml) in experiment [1] of 91. As for “(His)6-SED1 truncated fusion protein EEC (both EGF repeats, one discoidin/C domain)”, the binding of GalT I null sperm to the zona, % of control (% of control at 3.8 µg/ml) in experiment [2] came to 21.

B1: ZP3 zona pellucida glycoprotein (other, murine, UniProt P10761 23-351, looked up)
chain: QTLWLLPGGTPTPVGSSSPVKVECLEAELVVTVSRDLFGTGKLVQPGDLTLGSEGCQPRVSVDTDVVRFNAQLHECSSRVQMTKDALVYSTFLLHDPRPVSGLSILRTNRVEVPIECRYPRQGNVSSHPIQPTWVPFRATVSSEEKLAFSLRLMEENWNTEKSAPTFHLGEVAHLQAEVQTGSHLPLQLFVDHCVATPSPLPDPNSSPYHFIVDFHGCLVDGLSESFSAFQVPRPRPETLQFTVDVFHFANSSRNTLYITCHLKVAPANQIPDKLNKACSFNKTSQSWLPVEGDADICDCCSHGNCSNSSSSQFQIHGPRQWSKLVSRN
notes: Native glycoprotein on a blot, reducing and non-reducing conditions
With B1, the binding result in experiment [3] is “binds”.

B2: SED1, endogenous, of mouse sperm and male reproductive tract (protein)
chain: T1 sequence
In experiment [2], B2 displayed a sperm bound per egg, SED1 null sperm of 1.45 sperm/egg and a sperm bound per egg, wild-type sperm of 11.2 sperm/egg.

B3: (His)6-SED1 fusion protein (full-length recombinant mouse SED1 expressed in E. coli) (other)
chain: HHHHHHASGDFCDSSLCLNGGTCLTGQDNDIYCLCPEGFTGLVCNETERGPCSPNPCYNDAKCLVTLDTQRGDIFTEYICQCPVGYSGIHCETGCSTQLGMEGGAIADSQISASSVYMGFMGLQRWGPELARLYRTGIVNAWTASNYDSKPWIQVNLLRKMRVSGVMTQGASRAGRAEYLKTFKVAYSLDGRKFEFIQDESGGDKEFLGNLDNNSLKVNMFNPTLEAQYIRLYPVSCHRGCTLRFELLGCELHGCSEPLGLKNNTIPDSQMSASSSYKTWNLRAFGWYPHLGRLDNQGKINAWTAQSNSAKEWLQVDLGTQRQVTGIITQGARDFGHIQYVASYKVAHSDDGVQWTVYEEQGSSKVFQGNLDNNSHKKNIFEKPFMARYVRVLPVSWHNRITLRLELLGC
modifications: biotinylated with Sulfo-NHS-LC-LC-Biotin in the bead assays and in the streptavidin-detected blot overlays
notes: also called rSED1; recombinant SED1
Take B3: the binding result in experiment [4] is “no binding”. The binding of GalT I null sperm to the zona, % of control (% of control at 6 µg/ml) in experiment [2] stood at 27.
